Assay results published in US20060240570A1.
Positions of bridges follow the written chain, without caps; N, C: chain ends. No end group written: not given here.

B1: phagemid CS1-11p, displayed peptide … (peptide)
peptide: CSFRYQWDMFRCS
modifications: disulfide 1-12 (inferred); also: displayed on phagemid
B2: phagemid CS1-2p, displayed peptide … (peptide)
peptide: CSLFYLWDQDRCS
modifications: disulfide 1-12 (inferred); also: displayed on phagemid
B3: phagemid CS1-29p, displayed peptide … (peptide)
peptide: CSGLYPWDYFMCS
modifications: disulfide 1-12 (inferred); also: displayed on phagemid
B4: phagemid CS1-9p, displayed peptide … (peptide)
peptide: CSGLYPWDMFRCS
modifications: disulfide 1-12 (inferred); also: displayed on phagemid
B5: phagemid CS1-31p, displayed peptide … (peptide)
peptide: CSFFYSLCYCWCS
modifications: disulfide (positions not given here); also: disulfide pairing among 4 Cys not given here, displayed on phagemid
B6: phagemid CS1-6p, displayed peptide … (peptide)
peptide: CSFRYLWDQDRCS
modifications: disulfide 1-12 (inferred); also: displayed on phagemid

Columns and labels:
[1] = target: unrelated control antibody; assay: phage ELISA, 10^10 phagemid, wells coated with control mAb
[2] = target: unrelated control antibody; assay: phage ELISA, 10^8 phagemid, wells coated with control mAb
[3] = target: unrelated control antibody; assay: phage ELISA, 10^9 phagemid, wells coated with control mAb

Binder	ELISA (absorbance units) (absorbance units) [1]	ELISA (absorbance units) (absorbance units) [2]	ELISA (absorbance units) (absorbance units) [3]
B1	0.242	0.252	0.258
B2	0.228	0.188	0.199
B3	0.148	0.125	0.147
B4	0.213	0.209	0.204
B5	0.125	0.116	0.118
B6	0.203	0.173	0.172
